Measured values as given in US20150050271A1 (published 2015).
Substitutions are numbered along the chain they refer to. Names and notes keep the numbering of the source.

Assays:
WT (2A) = experiment: ELISA
WT (2B) = experiment: ELISA
WT (1B) = experiment: ELISA
WT (3) = experiment: ELISA
WT (1A) = experiment: ELISA
Type 3 wt = experiment: Biacore; mAb; printed ≤
[1] = molecular target: T1, MAD1 JCV VLPs (virus-like particles of JCV capsid protein VP1, MAD1 strain) (JC virus (JCV), MAD1, UniProt P03089 1-354); experiment: Biacore; Fab
T1 sequence (P03089 whole entry): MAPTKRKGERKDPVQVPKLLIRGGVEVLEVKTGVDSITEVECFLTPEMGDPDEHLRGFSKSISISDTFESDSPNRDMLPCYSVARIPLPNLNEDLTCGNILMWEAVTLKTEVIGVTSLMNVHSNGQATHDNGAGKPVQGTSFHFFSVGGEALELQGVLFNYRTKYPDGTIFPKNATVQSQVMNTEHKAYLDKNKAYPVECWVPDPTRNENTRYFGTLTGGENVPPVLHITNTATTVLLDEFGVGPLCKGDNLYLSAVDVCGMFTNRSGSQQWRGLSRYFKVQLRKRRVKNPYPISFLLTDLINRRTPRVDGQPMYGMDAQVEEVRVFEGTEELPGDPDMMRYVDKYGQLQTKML

[2] = molecular target: T1, MAD1 JCV VLPs (virus-like particles of …); experiment: Biacore; mAb
[3] = molecular target: T1, MAD1 JCV VLPs (virus-like particles of …); experiment: ELISA

B1: BIIB048 (antibody, V domains shown)
VH: QVQLVESGGGVVQPGRSLRLSCAASGFSFDRNYWIAWVRQAPGKGLEWVAVISAGGSGNTYYATWAKGRFTISRDNSKNTLYLQMNSLRAEDTAVYYCARFYSGGGYYAGYFTLWGQGTLVTVSS
VL: AIQLTQSPSSLSASVGDRVTITCQASQSIGNNLAWYQQKPGKAPKLLIYLASYLASGVPSRFSGSGSGTDFTLTISSLQPEDFATYYCQSSYYSPNDNAFGQGTKVEIK
- EC50 (WT (2A)): < 100 pM
- EC50 (WT (2B)): < 100 pM
- EC50 (WT (1B)): < 100 pM
- EC50 (WT (3)): < 100 pM
- EC50 (WT (1A)): < 100 pM

B2: H0/L0 mAb (antibody, V domains shown)
VH: B1 VH
VL: B1 VL
- Kd (Type 3 wt): < 10 pM

B3: V50A/N31A Fab (antibody, V domains shown)
VH: B1 VH with V51A
VL: B1 VL with I2F, T22N, N31A, D70Q, I75V
- Kd [1]: 8900 pM

B4: 5031G (antibody, V domains shown)
VH: B1 VH with V51G
VL: B1 VL with I2F, T22N, N31A, D70Q, I75V
- EC50 (WT (2A)): < 100 pM
- EC50 (WT (2B)): < 100 pM
- EC50 (WT (1B)): < 100 pM
- EC50 (WT (3)): < 100 pM
- EC50 (WT (1A)): < 100 pM

B5: antibody 50/31-A (heavy chain H0 V50A, light chain L2 N31A) (antibody, V domains shown)
VH: B1 VH with V51A
VL: B1 VL with I2F, T22N, N31A, D70Q, I75V
- Kd [2]: 900 pM

B6: humanized R399 H0L0 (antibody, V domains shown)
VH: B1 VH
VL: B1 VL
- EC50 [3]: < 100 pM

B7: antibody 50/31-G (heavy chain H0 V50G, light chain L2-N31A, as told in paragraph 169) (antibody, V domains shown)
VH: B1 VH with V51G
VL: B1 VL with I2F, T22N, N31A, D70Q, I75V
- EC50 [3]: < 100 pM

B8: H0/L0 Fab (antibody, V domains shown)
VH: B1 VH
VL: B1 VL
- Kd [1]: 50000 pM
